Data: publication PMC6599204, “DNA requirement in FANCD2 deubiquitination by USP1-UAF1-RAD51AP1 in the Fanconi anemia DNA damage response” (Nature Communications, 2019)

Molecular target: T1, FANCI (human, UniProt Q9NVI1 1-1328)
T1 construct: human FANCI
T1 sequence (looked up): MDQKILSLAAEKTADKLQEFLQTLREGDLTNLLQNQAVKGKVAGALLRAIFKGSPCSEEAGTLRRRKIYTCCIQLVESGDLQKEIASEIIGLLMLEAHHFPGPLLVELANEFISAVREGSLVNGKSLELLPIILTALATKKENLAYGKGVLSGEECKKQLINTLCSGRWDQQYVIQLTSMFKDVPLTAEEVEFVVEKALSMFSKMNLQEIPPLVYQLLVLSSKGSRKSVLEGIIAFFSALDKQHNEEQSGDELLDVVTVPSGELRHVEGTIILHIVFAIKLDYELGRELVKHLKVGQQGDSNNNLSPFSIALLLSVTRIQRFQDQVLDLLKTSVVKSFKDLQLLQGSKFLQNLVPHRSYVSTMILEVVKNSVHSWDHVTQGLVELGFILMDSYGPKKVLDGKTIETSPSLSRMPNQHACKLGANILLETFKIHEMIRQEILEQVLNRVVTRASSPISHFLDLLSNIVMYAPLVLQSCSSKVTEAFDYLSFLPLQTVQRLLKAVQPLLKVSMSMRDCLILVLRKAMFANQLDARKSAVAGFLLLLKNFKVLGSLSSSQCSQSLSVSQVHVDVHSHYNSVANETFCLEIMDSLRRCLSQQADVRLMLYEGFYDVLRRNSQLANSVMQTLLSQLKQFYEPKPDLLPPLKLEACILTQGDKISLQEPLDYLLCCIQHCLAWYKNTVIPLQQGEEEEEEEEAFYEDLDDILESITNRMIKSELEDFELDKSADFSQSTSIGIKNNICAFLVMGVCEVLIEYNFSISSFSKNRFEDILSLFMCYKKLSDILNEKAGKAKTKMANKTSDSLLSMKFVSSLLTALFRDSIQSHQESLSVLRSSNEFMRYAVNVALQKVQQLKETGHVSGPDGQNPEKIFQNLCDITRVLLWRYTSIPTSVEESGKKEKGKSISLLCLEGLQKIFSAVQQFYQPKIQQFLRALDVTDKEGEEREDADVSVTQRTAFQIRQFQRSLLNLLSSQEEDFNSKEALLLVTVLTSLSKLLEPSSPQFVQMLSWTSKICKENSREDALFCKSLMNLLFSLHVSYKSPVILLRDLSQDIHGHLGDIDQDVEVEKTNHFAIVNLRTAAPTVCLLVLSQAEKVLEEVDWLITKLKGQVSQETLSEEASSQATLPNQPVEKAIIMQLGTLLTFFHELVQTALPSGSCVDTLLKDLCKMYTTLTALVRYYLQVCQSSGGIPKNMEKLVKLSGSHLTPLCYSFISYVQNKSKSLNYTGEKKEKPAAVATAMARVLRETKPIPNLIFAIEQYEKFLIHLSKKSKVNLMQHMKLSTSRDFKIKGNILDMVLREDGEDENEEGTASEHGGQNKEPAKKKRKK
Experiment: pull-down; same procedure as for RAD51AP1, but Strep-Tactin resin captured the complexes via the Strep tag on UAF1; USP1 or FANCI as the other protein; SDS-PAGE, Coomassie Blue
Conditions: both partners purified

binding result: binds
B1: UAF1 (natural protein)
chain: not shown
notes: human UAF1 (isoform 1), full-length; also called UAF1 (WT); UAF1 (FL); not shown: Strep-II, C-terminal, kept
